Reference: patent US20240317854A1 (Merck Sharp & Dohme, published 2024)

Target: T1, human immunoglobulin-like transcript 3 (ILT3) (human, UniProt Q8NHJ6 22-448)
T1 construct: whole, on cells; also called LILRB4; LIR5
Test: receptor occupancy in blood samples of trial participants dosed in vivo (Q3W)

B1: Humanized anti-ILT3 mAb (52B8 VH1 M64V/VL5 N34Q) IgG4 S228P/Kappa (antibody, V domains shown)
VH: EVQLVESGGGLVQPGGSLRLSCAASGFTFSNYGMSWVRQAPGKGLEWVATISGGGDYTNYPDSVRGRFTISRDNAKNSLYLQMNSLRAEDTAVYYCGRRLWFRSLYYAMDYWGQGTLVTVSS
VL: DIQLTQSPSSLSASVGDRVTITCRASEKVDSFGQSFMHWYQQKPGKAPKLLIYLTSNLDSGVPSRFSGSGSGTDFTLTISSLQPEDFATYYCQQNNEDPYTFGQGTKLEIKR
notes: also called mAb number 46; mAb No. 46
B1: binds.
